Drawing on a protein production outcome set (Wang et al. 2014), this text covers protein production for 21 sequences.

The data set is described as follows: label from the status in PepcDB records.
For “MSLPSSRTRGRPARLDRARTVQTALDLLNESGLDTLTMRRLAQAMDVQAGALYRYFAAKQDLLTAMAEHMVDGVADAAGATGDGDWSERTARLARALRAALLAHRDGARVFAGTHATGPNTLRFADGLVGVLREAGFGDGDAARALYSVANFTVGHTLEEQAALTPGGGGPLDEATLREAVAAGTYPHLAATLPVLTSTDFTAHFEFGLRLLLDGLRAVRQ”, the protein production result is “not failed”.

“MSLQESSLVLSNGLGFVDTPYKAGTLEVDDTEDLIINCDEVDCTTFVEYALAMALCPQQGDEMQEGDFARNLQRIRYRDGKIDGYTSRLHYISDWINNAVRQGLLEDVTAAYSPFKQKLSLSYMSTHPELYKSLKNSPENVAQMAKYEKALSGKEVHYLPKDKLEPDGLPWIKNGDIIALTTNTPGLDVSHMGIAIYIKGQLHLLHASSKEGKVVVGKTALSQMLKDRKSLTGIRVLRMKKEGHHHHHH”: the protein production result was “not failed”. Take “MSLQWECWPSLPCWRCFAASGRITLSIKRFTQNSRRHDMKITKINAIPLSYRLPEGKTVTMGVGSTIKRDAIIIRVETSEGITGYGEAHPGRSPGAITSLIHNTIAPMLIGMKATDCVGAWQRVHRMQLSSHGLGAGAALAISGIDMALWDIRGKAANMPLYELLGGSKRRIPAYAGGIALGYQPKESLAEEAQEYIARGYKALKLRIGDAARVDIERVRHVRKVLGDEVDILTDANTAYTMADARRVLPVLAEIQAGWLEEPFACNDFASYREVAKITPLVPIAAGENHYTRFEFGQMLDAGAVQVWQPDLSKCGGITEGIRIAAMASAYRIPINAHSSATGLNHAATIHFLAATENAGYFEACVSKFNPFRDMFGTSFEIGADGCVEPPDAPGLGIEVDESIFEKYPAVDGPGYVVKFEGHHHHHH”: the protein production result is listed as “not failed”. For the sequence “MSLRDFGLLVLICLIWAGSNIISKLVVAHWGVPPLYYAAVRFALVAALTLPWLLPAPRPTWRMVLVGLLMGGGNFALLFMGFQTASPSAASVVIQVGVPFTTLLSVLILGEKIRWRRGLGIALTLLGAVVVMWSPKGIELSAGLWLIVAAAFTGSLGAVMMKQIEGVKPLQFQAWVGFSSVWPLAAMSAFMEPGQVAAGFAAGWPFVAAVVFSAVVVSILAHTAYYGLIQRYEANLIAPLTLMTPLFTIGMGVVVTNDHFDLRMGIGAALALLGVLIIALRRNQVMPLLTSLRSRLQ”, the protein production entry is “failed”. With “MSLRDTQTQLRNEMIYSVFVRNYSEAGNFAGVTADLQRIKDLGTDILWLLPINPIGEVNRKGTLGSPYAIKDYRGINPEYGTLADFKALTDRAHELGMKVMLDIVYNHTSPDSVLATEHPEWFYHDADGQLTNKVGDWSDVKDLDYGHHELWQYQIDTLLYWSQFVDGYRCDVAPLVPLDFWLEARKQVNAKYPETLWLAESAGSGFIEELRSQGYTGLSDSELYQAFDMTYDYDVFGDFKDYWQGRSTVERYVDLLQRQDATFPGNYVKMRFLENHDNARMMSLMHSKAEAVNNLTWIFMQRGIPLIYNGQEFLAEHQPSLFDRDTMVADRHGDVTPLIQKLVTIKQLPLLRAADYQLAVVEEGIVKITYRAAGEALTAWIPLKGQVTAVATKLAAGSYQNLLTDGPTEVVDGKLTVDGQPVLIKYVTNTAVTKVADQSNEGHHHHHH” the entry was “not failed”; with “MSLRHLYIEEGRTVCASATSRNRRPTSESPHSDDVVVVEGMLRGRPETRVHAMFDGFQGRHSAMWLAQNVMNYLNDLRDVNEEEITRQFERMDGDLRAANLPGGSSALIIFVRYEKKPTEARVVGRQIVPEGAKEFTSVAEALGGPLMPVVAMNFRRDPRAAKGIYTIHVASLGNSRCVLKSGRTAIHLSTPHTASSHKERHRVQAAGGVFTTVNGELLLGGVVPMTRAFGSFDFKKGGQGKLQQDLVSAVPDVTTFFAYPGDDIVAGTAGAFAHFRSHAAIAAAIALYPVSPETVLDAAKAMVVNAKRRKVTKNISTFVRHLPESRTRSQKMLEGTSGENGEEDFSIDRTNELTQALQAGFFSFLLYYEGHHHHHH”, “not failed”; with “MSLRKEPYLLVFGASVVDVFGFSKASYRPYNSTPGHVKISFGGVCRNIAENMARVGVNTNFMSILGNDEHGKSIVEHSKKIGYHMDDSMVIEGGSTPTYLAILDENGEMVSAIADMKSIGAMNTDFIDSKREIFENAEYTVLDSDNPEIMEYLLKNFKDKTNFILDPVSAEKASWVKHLIKDFHTIKPNRHEAEILAGFPITDTDDLIKASNYFLGLGIKKVFISLDADGIFYNDGVSCGKIKATEVDVKNVTGAGDSFVAGLGYGYMNKMPIEDIVKFAMTMSNITISHEETIHPDMALDTVLAKLEKTTWEEEKYDLNEGHHHHHH”, “not failed”. On to “MSLRNPVLAGLSVEEIREAVSGEYLIEPREEKMVEQVVIGAMSPQSALRYLREARNAALVTGGDRSDLLLTALEMPNVRCLILTGNLEPVQLVLTKAEERGVPVILTGHDTLTAVSRLESVFGRTRIRGEPKVGIMRELFESEGHHHHHH”, for which the protein production entry is recorded as “not failed”. As for “MSLRQVIPIPSPPAKYLLPEVTVLDYGKKCVVIDLDETLVHSSFKPISNADFIVPVEIDGTIHQVYVLKRPHVDEFLQRMGQLFECVLFTASLAKYADPVADLLDRWGVFRARLFRESCVFHRGNYVKDLSRLGRELSKVIIVDNSPASYIFHPENAVPVQSWFDDMTDTELLDLIPFFEGLSREDDEGHHHHHH”, the protein production result was “not failed”. With “MSLSAPRITRVETAAIRAVGPSVLVRVWAGDEHGLGECYPSAPAAGIHHIVMNMEEQLLGEDPRDVERLYEKMRRWNIFTGGQAGAVITALSGIETALWDLAGKLQGVPVYRLLGGAFRRRVRLYADCNAGTVDAAAHHIEGGLFVEGSNEEYIAVAREAVERGFDAIKLDVDDITGPLHRDFWNGAISPREHEAMVARVAAVREAVGPEVEVAIDMHGRFDIPSSIRFARAMEPFGLLWLEEPTPPENLDALAEVRRSTSTPICAGENVYTRFDFRELFAKRAVDYVMPDVAKCGGLAEAKRIANLAELDYIPFAPHNVSSPVGTVAAAHVCAAVSNFAVLEWHAIDMPHWEDFVRYPGGPVIREGHIELTEEPGLGLELDEEAAFEHRHEKGGVPFFGRTEGHHHHHH” the entry was “not failed”. For “MSLSDESFEFDVSVIGLGAMGTIMAQVLLKQGKRVAIWNRSPGKAAALVAAGAHLCESVKAALSASPATIFVLLDNHATHEVLGMPGVARALAHRTIVDYTTNAQDEGLALQGLVNQAGGHYVKGMIVAYPRNVGHRESHSIHTGDREAFEQHRALLEGLAGHTVFLPWDEALAFATVLHAHAFAAMVTFFEAVGAGDRFGLPVSKTARLLLETSRFFVADALEEAVRRLETQDFKGDQARLDVHADAFAHIAQSLHAQGVWTPVFDAVCQVVQRAAAMGYGDQDIAATTKSFAREQEEGHHHHHH” the value was “not failed”; for “MSLSDWHLAVKLADQPLAPKSILQLPETELGEYSLGGYSISFLKQLIAGKLQESVPDPELIDLIYCGRKLKDDQTLDFYGIQPGSTVHVLRKSW”, “not failed”; for “MSLSEIKHWVFDMDGTLTIAVHDFAAIREALSIPAEDDILTHLAALPADESAAKHAWLLEHERDLAQGSRPAPGAVELVRELAGRGYRLGILTRNARELAHVTLEAIGLADCFAEADVLGRDEAPPKPHPGGLLKLAEAWDVSPSRMVMVGDYRFDLDCGRAAGTRTVLVNLPDNPWPELTDWHARDCAQLRDLLSAEGHHHHHH”, “not failed”. For “MSLSEIKRKFDAVSGKYDEQRRKFIPCFDDFYGVSVSIASVDTENPDILDLGAGTGLLSAFLMEKYPEATFTLVDMSEKMLEIAKNRFRGNLKVKYIEADYSKYDFEEKYDMVVSALSIHHLEDEDKKELYKRSYSILKESGIFINADLVHGETAFIENLNKTIWRQYVENSGLTEEEIAAGYERSKLDKDIEMNQQLNWLKEAGFRDVSCIYKYYQFAVMFGRKTEGHHHHHH” the value was “not failed”. In the case of “MSLSEPAWSLHSRLKEDTIDIGDLPLSKVLVIKDANYPWLLLVPRRPDAVEIIDLDEVQQAQLMTEISRVSRALKEITKCDKLNIAALGNLVPQLHVHIIARRTGDAAWPRPVWGVMQPLAHDATEVQNFISALRRKIWLGEGHHHHHH”, the protein production result is reported as “not failed”. For “MSLSFMIGYSWTQTEPGQVNHILDQFLSSMVREAGAVNYFVLPFPFSEDRSQIDIYRDLIRSGNVDGFVLSSINYNDPRVQFLLKQKFPFVAFGRSNPDWDFAWVDIDGTAGTRQAVEYLIGRGHRRIAILAWPEDSRVGNDRLQGYLEAMQTAQLPIETGYILRGEGTFEVGRAMTLHLLDLSPERRPTAIMTLNDTMAIGAMAAARERGLTIGTDLAIIGFDDAPMVQYLFPPLSSVRQPIAEAGRKCIELLVAIVEGREPEQKHILLQPSLIIRASEGLITITTDPNSSSVDKLAAALEHHHHHH” the value was “not failed”. With “MSLSIVRIDAEDRWSDVVIYNNTLWYTGVPENLDADAFEQTANTLAQIDAVLEKQGSSKSRILDATIFLSDKADFAAMNKAWDAWVVAGHAPVRCTVQAGLMNPKYKVEIKIVAAVEGHHHHHH”, the protein production result was “not failed”. As to “MSLSLSHFRITRFQFARDRVIGDSQVRADDVNVAALELVSESGEVGLGFIQTLFNPLPDQQEIESVFEHEVWPSLKGNRAIALVHRVNRPRGGNQRAYSLPFHEAVQVALWDLAAKEAGLPLHVLLGSRRNRVKAYASGLDFHLDDDAFVSLFSHAASIGYSAFKIKVGHRDFDRDLRRLELLKTCVPAGSKVMIDPNEAWTSKEALTKLVAIREAGHDLLWVEDPILRHDHDGLRTLRHAVTWTQINSGEYLDLQGKRLLLEAHAADILNVHGQVTDVMRIGWLAAELGIPISIGNTFLEAGVHMAVALPEVEWLEYSFQNFDHLVEQPIEIRDGYAYAPDRPGHGLVLSEKARGEWSRPRRLARSELGAAPENPRLPAKEGHHHHHH”, the protein production entry was “not failed”. For “MSLSTAADLLRQGAACSVLYLTSVETESLTGPQAVARASSAALSCSPRPTPAVVHFKVSAQGITLTDNQRKLFFRRHYPVNSITFSSTDPQDRRWTNPDGTTSKIFGFVAKKPGSPWENVCHLFAELDPDQPAGAIVTFITKVMLGQRKEGHHHHHH” the value was “not failed”. In the case of “MSLSTIRIGGAAVNQTPIDWENNVKNILDAIEEAKNANVEILCLPELCITGYGCEDLFLTDWVAETAIEYCFEIAASCTDITVSLGLPMRIAGITYNCVCLVENGIVKGFSAKQFLANEGVHYETRWFTAWPRNHTTTFLYNDVKYPFGDVLYNVKDARIGFEICEDAWRTDRVGIRHYEKGATLVLNPSASHFAFGKSAIRYDLVIGGSERFDCTYVYANLLGNEAGRMIYDGEVLIAHKGKLIQRNDRLSFKNVNLIYADIATDSAETPETVLTQDDLEKEFEFWEATSLGLFDYMRKSRSKGFVLSLSGGADSSACAIMVAEMIRKGLKELGLTAFLQKSNMETLFDLPALQHLPFEEQAKKITAVFLTTAYQSTRNSGDETYTSAKTLAESIGATFYNWSVDEEIEQYKATIENVIERPLTWEKDDITLQNIQARGRAPIIWMLTNVKQALLITTSNRSEGDVGYATMDGDTAGGIAPIAGVDKDFIRSWLRWAEKNRNQHGLHIVNKLAPTAELRPSEYTQTDERDLMPYDVLARIERKAIKERLSPVQVYTALLTEGPYTKNEFKYWVKKFFRLWSINQWKRERLAPSFHMDDFNIDPRSWYRFPILSSGFAKELNDLDQEGHHHHHH”, the protein production result is listed as “not failed”.

As to “MSLSWEIEELDREIGKIKKHSLILIHEEDASSRGKDILFYILSRKLKSDNLVGMFSISYPLQLIIRILSRFGVDVIKYLENHRLAIVDTFGSFHGIKATMPGVWYLEGMLSSETLPIKYAKAVEDHKKVWMDLNLFEGRELYGFAISMSGYLEVFTPEETLRYLETSAEVRYGHPAYKKYPRGTNFWLWEGVKDKRVLLSVYRRADYVLKTRSSLGENGIKRELLVIKTPKPIEELVRFEYEFKGNEPKLRREGHHHHHH”, the protein production result is “not failed”.
